Results on four molecules are retold here after PMC8041799, “Reovirus directly engages integrin to recruit clathrin for entry into host cells” (Nature Communications, 2021).

The target of experiment [1] is α2β1 integrin (UniProt P17301). Put plainly: single-virus force spectroscopy (FD-curve-based AFM); virus particle on the AFM tip through a PEG27 linker; α2β1 integrin coupled by NHS/EDC to a gold surface; virion-storage buffer (150 mM NaCl, 15 mM MgCl2, 10 mM Tris pH 7.4) with 2 mM Mn2+; ~25 °C; koff from a Bell-Evans fit, kon from BF against contact time, KD = koff/kon.

In experiment [2] the target is α2β1 integrin (UniProt P17301). Put plainly: BLI; as a11, virion-storage buffer with 2 mM Ca2+. For orientation: BLI is a label-free optical method that tracks binding on a fibre tip over time.
For experiment [3], the target named is α2β1 integrin (UniProt P17301). Put plainly: BLI; α2β1 integrin immobilised on amine-reactive (AR2G) biosensors; T3SA+ virus ~10^13 particles/mL (16 nM in the fit) in virion-storage buffer with 2 mM Mn2+; room temperature; BLItz.
Experiment [4] concerns the target β1 integrin on living Lec2 cells (Chinese hamster (endogenous in Lec2)). Put plainly: single-virus force spectroscopy (FD-curve-based AFM); virion on the AFM tip; living Lec2 cells, PeakForce QNM mode; with Ca2+ (concentration on cells not stated).
The target in experiment [5] is α2β1 integrin (UniProt P17301). Description: single-virus force spectroscopy (FD-curve-based AFM); as a1 but with 2 mM Ca2+ instead of Mn2+.
The target in experiment [6] is β1 integrin on living Lec2 cells (Chinese hamster (endogenous in Lec2)). Put plainly: single-virus force spectroscopy (FD-curve-based AFM); virion on the AFM tip; living Lec2 cells, PeakForce QNM mode, cell culture conditions; 0.5 mM Mn2+.
Experiment [7] has the same target. Put plainly: single-virus force spectroscopy (FD-curve-based AFM); virion on the AFM tip; living Lec2 cells, PeakForce QNM mode; 0.5 mM Mg2+.
The target of experiment [8] is α2β1 integrin (UniProt P17301). Description: BLI; as a11, virion-storage buffer (15 mM Mg2+) without further cation.
Experiment [9] deals with α2β1 integrin (UniProt P17301). Put plainly: single-virus force spectroscopy (FD-curve-based AFM); as a1 but 15 mM Mg2+ of the virion-storage buffer as only divalent cation.
For experiment [10], the target named is α2β1 integrin (UniProt P17301). Put plainly: single-virus force spectroscopy (FD-curve-based AFM); as a1 (Mn2+), with 1 mM Neu5Ac.
For experiment [11], the target named is T1, α2β1 integrin (UniProt P17301 30-1132; P05556 21-728).
T1 construct: integrin α2 subunit; integrin β1 subunit; No catalogue number printed; The vendor's recombinant α2β1 is, as far as I recall, the human extracellular domains joined by acidic and basic tails; Coupled through amines (NHS/EDC) to gold surfaces or AR2G biosensors; also called α2β1 integrins; β1 integrins; source: bought: R&D Systems
Description: single-virus force spectroscopy (FD-curve-based AFM); virus particle on the AFM tip through a PEG27 linker; α2β1 integrin coupled by NHS/EDC to a gold surface; virion-storage buffer (150 mM NaCl, 15 mM MgCl2, 10 mM Tris pH 7.4) with 2 mM Mn2+; ~25 °C; koff from a Bell-Evans fit, kon from BF against contact time, KD = koff/kon. As to conditions: both partners purified.

In general, Kd refers to a measure of binding affinity in units of concentration. Higher therefore signals lower affinity. A word on the koff: it is a measure of how fast the partners let go of each other. A word on the kon: it is the rate constant with which the complex forms.

Chain of α2β1 integrin (UniProt P17301) (P17301 30-1132, chain 1 of 2): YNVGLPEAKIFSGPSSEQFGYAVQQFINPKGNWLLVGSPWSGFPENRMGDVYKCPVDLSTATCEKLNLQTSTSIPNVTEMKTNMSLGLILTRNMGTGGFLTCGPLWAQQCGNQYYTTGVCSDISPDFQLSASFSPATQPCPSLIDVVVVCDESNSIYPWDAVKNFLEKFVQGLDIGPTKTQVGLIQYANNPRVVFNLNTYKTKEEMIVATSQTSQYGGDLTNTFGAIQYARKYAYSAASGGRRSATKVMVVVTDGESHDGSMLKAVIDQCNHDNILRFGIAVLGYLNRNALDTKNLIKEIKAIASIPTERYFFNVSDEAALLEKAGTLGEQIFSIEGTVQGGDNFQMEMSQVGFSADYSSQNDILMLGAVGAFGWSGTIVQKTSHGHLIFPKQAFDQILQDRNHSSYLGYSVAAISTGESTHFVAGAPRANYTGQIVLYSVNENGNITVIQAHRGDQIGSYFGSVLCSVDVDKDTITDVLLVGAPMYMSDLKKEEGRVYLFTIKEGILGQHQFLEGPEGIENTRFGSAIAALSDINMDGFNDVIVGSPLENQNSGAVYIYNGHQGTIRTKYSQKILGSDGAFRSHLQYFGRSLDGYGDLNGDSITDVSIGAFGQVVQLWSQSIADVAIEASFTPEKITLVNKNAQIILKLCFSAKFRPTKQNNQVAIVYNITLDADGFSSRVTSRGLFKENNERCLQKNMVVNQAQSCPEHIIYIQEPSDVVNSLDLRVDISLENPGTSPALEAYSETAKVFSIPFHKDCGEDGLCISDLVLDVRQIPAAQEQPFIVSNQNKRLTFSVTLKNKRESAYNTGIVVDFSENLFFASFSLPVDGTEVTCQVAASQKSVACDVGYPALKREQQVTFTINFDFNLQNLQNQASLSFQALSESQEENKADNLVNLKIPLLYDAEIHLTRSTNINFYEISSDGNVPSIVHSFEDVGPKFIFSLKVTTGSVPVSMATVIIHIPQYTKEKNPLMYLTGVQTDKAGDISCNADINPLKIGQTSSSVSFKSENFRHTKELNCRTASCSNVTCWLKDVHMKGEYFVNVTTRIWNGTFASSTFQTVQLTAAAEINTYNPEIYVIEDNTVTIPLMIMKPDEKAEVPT
Chain of α2β1 integrin (UniProt P17301) (P05556 21-728, chain 2 of 2, further chain): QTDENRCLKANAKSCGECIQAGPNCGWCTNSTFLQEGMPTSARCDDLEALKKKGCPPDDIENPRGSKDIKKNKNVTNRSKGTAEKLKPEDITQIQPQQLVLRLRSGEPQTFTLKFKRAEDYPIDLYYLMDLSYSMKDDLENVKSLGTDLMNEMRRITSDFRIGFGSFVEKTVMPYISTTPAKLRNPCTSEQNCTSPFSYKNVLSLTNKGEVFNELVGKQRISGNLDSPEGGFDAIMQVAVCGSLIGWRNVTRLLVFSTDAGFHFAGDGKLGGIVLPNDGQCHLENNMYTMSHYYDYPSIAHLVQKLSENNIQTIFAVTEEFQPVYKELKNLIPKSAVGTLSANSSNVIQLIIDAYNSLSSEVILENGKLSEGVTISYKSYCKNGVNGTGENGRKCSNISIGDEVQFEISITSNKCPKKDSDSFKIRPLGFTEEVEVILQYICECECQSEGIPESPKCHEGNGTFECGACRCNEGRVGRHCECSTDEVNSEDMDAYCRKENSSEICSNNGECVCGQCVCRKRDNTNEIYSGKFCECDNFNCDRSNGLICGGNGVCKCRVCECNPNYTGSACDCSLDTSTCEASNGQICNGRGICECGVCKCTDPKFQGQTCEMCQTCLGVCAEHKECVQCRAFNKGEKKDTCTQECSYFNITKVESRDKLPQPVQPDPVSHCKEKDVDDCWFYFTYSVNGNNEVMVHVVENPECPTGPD
T1 sequence (P17301 30-1132, chain 1 of 2): as the sequence (P17301 30-1132, chain 1 of 2) above
T1 sequence (P05556 21-728, chain 2 of 2): as the sequence (P05556 21-728, chain 2 of 2, further chain) above

With “T3SA+ infectious subvirion particle (ISVP) (from UniProt P03528 1-455; P11077 1-708) (complex)”, in the experiment with α2β1 integrin [1], the BF (binding frequency) is 4%, the equilibrium dissociation constant (Kd) stood at 105 nM, the koff came to 0.59 s⁻¹ and the association rate constant (kon) is 5.62e+06 M⁻¹ s⁻¹.
On to “reovirus strain T3SA+ virion (from UniProt P03528 1-455; P11077 1-708; P07939 1-365) (complex)”, for which the equilibrium dissociation constant (Kd) with α2β1 integrin [2] was found to be 85 nM; in the experiment with α2β1 integrin [3], 2 nM; with α2β1 integrin [1], 68 nM; in the experiment with α2β1 integrin [8] it was 10 nM; in the experiment with α2β1 integrin [9], 548 nM; with α2β1 integrin [10] it was 116 nM. Besides, the BF (binding frequency) in experiment [4] was determined as 1%; with α2β1 integrin [5], 1%; with α2β1 integrin [1], 19%; in [6], 6%; in [7] it was 3%; in the experiment with α2β1 integrin [9], 8%. In addition, the figures for the off-rate (koff) in the experiment with α2β1 integrin [1], with α2β1 integrin [9] and in the experiment with α2β1 integrin [10] were 0.4 s⁻¹, 2.1 s⁻¹ and 0.57 s⁻¹, respectively. The kon with α2β1 integrin [1] is 5.83e+06 M⁻¹ s⁻¹; in the experiment with α2β1 integrin [9] it was 3.83e+06 M⁻¹ s⁻¹; in the experiment with α2β1 integrin [10] it was 4.92e+06 M⁻¹ s⁻¹. For the same molecule, the BF (binding frequency) with Neu5Ac with α2β1 integrin [10] amounted to 6%.
Turning to “reovirus strain T3SA- virion (from UniProt P03528 1-455; P11077 1-708; P07939 1-365) (complex)”, in the experiment with α2β1 integrin [1], the BF (binding frequency) is 7%, the equilibrium dissociation constant (Kd) amounted to 103 nM, the koff stood at 0.58 s⁻¹ and the on-rate (kon) amounted to 5.62e+06 M⁻¹ s⁻¹.

B1: T3SA+ core (complex)
chain: MANVWGVRLADSLSSPTIETRTRHYTLRDFCSDLDAVAGKEPWRPLRNQRTNDIVAVQLFRPLQGLVLDTQFYGFPGIFSEWEQFIKEKLRVLKYEVLRIYPISNYNHERVNVFVANALVGAFLSNQAFYDLLPLLVINDTMINDLLGTGAALSQFFQSHGEVLEVAAGRKYLQMKNYSNDDDDPPLFAKDLSDYAKAFYSDTFETLDRFFWTHDSSAGVLVHYDKPTNGNHYILGTLTQMVSAPPHIINATDALLLESCLEQFAANVRARPAQPVARLDQCYHLRWGAQYVGEDSLTYRLGVLSLLATNGYQLARPIPKQLTNRWLSSFVSQVMSDGVNETPLWPQERYVQIAYDSPSVVDGATHYGYVRRNQLRLGMRVSALQSLSDTPAPIQWLPQYTIEQAAVDEGDLMVSRLTQLPLRPDYGSIWVGDALSYYVDYNRSHRVVLSSELPQLPDTYFDGDEQYGRSLFSLARKIGDRSLIKDTAVLKHAYQAIDPNTGKEYLRAGQSVAYFGASAGHSGADQPLVIEPWTQGKISGVPPPSSVRQFGYDVAKGAIVDLARPFPSGDYQFVYSDVDQVVDGHDDLSISSGLVESLLDSCMHATSPGGSFVMKINFPTRTVWHYIEQKILPNITSYMLIKPFVTNNVELFFVAFGVHQQSALTWTSGVYFFLVDHFYRYETLSTISRQLPSFGYVDDGSSVTGIEMISLENPGFSNMTQAARVGISGLCANVGNARKLISIHESHGARVLTITSRRSPASARRKARLRYLPLVDPRSLEVQARTILPSNPVLFDNVNGASPHVCLTMMYNFEVSSAVYDGDVVLDLGTGPEAKILELIPPTSPVTCVDIRPTAQPSGCWNVRTTFLELDYLSDGWITGIRGDIVTCMLSLGAAAAGKSMTFDAAFQQLVKVLTKSTANVLLIQVNCPTDVIRTIKGYLEIDQTNKRYRFPKFGRDEPYSDMDSLERICRAAWPNCSITWVPLSYDLRWTKLALLESTTLSSASVRIAELMYKYMPVMRIDIHGLPMEKQGNFIVGQNCSLTIPGFNAQDVFNCYFNSALAFSTEDVNSAMIPQVTAQFDANKGEWSLDMVFSDAGIYTMQALVGSNANPVSLGSFVVDSPDVDITDAWPAQLDFTIAGTDVDITVNPYYRLMAFVRIDGQWQIANPDKFQFFSSSTGTLVMNVKLDIADRYLLYYIRDVQSRDVGFYIQHPLQLLNTITLPTNEDLFLSAPDMREWAVKESGNTICILNSQGFVPPQDWDVLTDTISWSPSLPTYVVPPGDYTLTPL
In the experiment with α2β1 integrin [11], B1 registered a Kd of 741 ± 317 nM, a koff of 1.52 ± 0.4 s⁻¹ and a kon of 2.05e+06 ± 300000 M⁻¹ s⁻¹.
